Measured values published in patent publication US20240279325A1 (Chugai, published 2024).
Blank lines part the entries; values can stand above or below the binder they belong to.

What was measured:
human FcγRIIb = molecular target: T1, human FcγRIIb (human, UniProt P31994 43-217); assay: SPR (Biacore), amount bound against IL6R-F652/IL6R-L x 100
T1 sequence: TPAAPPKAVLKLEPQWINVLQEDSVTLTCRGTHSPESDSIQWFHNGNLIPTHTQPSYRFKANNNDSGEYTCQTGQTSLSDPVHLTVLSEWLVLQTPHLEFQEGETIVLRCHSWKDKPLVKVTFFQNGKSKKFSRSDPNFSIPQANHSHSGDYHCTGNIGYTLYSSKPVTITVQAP
Text: (§1) These variants were expressed and purified by the method of Reference Example 1. These Fc variants are called PD variants. Interactions of each PD variant with FcγRIIa type R (allotype R131) and FcγRIIb were comprehensively evaluated by the method of Reference Example 2.

[1] = molecular target: T2, human FcγRIIa type R (allotype R131) (human, UniProt P12318 36-217); assay: as above
T2 construct: also called FcγRIIaR; R-type FcγRIIa
T2 chain: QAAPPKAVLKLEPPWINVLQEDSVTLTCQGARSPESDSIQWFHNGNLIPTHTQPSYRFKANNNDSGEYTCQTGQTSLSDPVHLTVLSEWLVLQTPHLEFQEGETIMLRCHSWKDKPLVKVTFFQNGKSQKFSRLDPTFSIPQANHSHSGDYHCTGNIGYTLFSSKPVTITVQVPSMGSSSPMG
Text: as §1

[2] = molecular target: T3, human FcγRIa extracellular domain with C-terminal His tag (human, UniProt P12314 16-292); assay: SPR (Biacore), captured antibody, FcγR analyte
T3 construct: extracellular domain; also called FrgRIa
T3 sequence (P12314 16-292): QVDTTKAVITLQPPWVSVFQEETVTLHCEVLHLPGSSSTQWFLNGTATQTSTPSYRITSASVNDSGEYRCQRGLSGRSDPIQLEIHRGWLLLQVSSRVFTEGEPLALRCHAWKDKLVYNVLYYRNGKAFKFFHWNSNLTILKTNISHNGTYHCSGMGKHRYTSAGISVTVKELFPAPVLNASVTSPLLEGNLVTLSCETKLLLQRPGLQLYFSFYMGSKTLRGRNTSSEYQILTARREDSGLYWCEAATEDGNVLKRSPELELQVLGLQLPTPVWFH

[3] = molecular target: T4, human FcγRIIa type R (allotype R131) extracellular domain with C-terminal His tag (human, UniProt P12318 34-217); assay: SPR (Biacore), captured antibody, FcγR analyte
T4 construct: extracellular domain; also called FcγRIIaR; FrgRIIaR
T4 sequence (looked up): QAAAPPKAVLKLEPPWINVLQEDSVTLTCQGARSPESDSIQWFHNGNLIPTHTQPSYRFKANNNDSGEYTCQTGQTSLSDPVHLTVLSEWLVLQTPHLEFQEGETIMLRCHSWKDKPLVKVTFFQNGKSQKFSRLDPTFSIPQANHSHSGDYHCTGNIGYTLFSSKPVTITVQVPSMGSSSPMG

[4] = molecular target: T5, human FcγRIIa type H (allotype H131) extracellular domain with C-terminal His tag (human, UniProt P12318 34-217); assay: SPR (Biacore), captured antibody, FcγR analyte
T5 construct: extracellular domain; also called FcγRIIaH; FrgRIIaH
T5 sequence (looked up): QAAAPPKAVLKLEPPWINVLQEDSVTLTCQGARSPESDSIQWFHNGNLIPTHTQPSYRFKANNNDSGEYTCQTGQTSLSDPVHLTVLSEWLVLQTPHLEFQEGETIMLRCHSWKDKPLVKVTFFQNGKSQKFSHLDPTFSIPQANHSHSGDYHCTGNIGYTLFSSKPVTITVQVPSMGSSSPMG

[5] = molecular target: T6, human FcγRIIb extracellular domain with C-terminal His tag (human, UniProt P31994 43-217); assay: SPR (Biacore), captured antibody, FcγR analyte
T6 construct: extracellular domain; also called FrgRIIb
T6 sequence (looked up): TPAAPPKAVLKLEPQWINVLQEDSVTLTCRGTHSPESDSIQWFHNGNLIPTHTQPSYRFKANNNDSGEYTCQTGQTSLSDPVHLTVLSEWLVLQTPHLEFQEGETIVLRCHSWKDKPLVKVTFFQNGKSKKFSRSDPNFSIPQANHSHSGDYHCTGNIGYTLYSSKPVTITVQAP

[6] = molecular target: T7, human FcγRIIIa type V (allotype V158) extracellular domain with C-terminal His tag (human, UniProt P08637 17-208); assay: SPR (Biacore), captured antibody, FcγR analyte
T7 construct: extracellular domain; also called FcγRIIIaV; FrgRIIIaV
T7 sequence (P08637 17-208 F176V): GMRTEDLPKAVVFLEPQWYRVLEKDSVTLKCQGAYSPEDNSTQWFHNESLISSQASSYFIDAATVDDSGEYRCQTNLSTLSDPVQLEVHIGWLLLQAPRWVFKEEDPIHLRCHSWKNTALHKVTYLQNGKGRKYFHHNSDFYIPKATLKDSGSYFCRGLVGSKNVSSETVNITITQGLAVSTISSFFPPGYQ

[7] = molecular target: T8, FcγRIIb extracellular domain with C-terminal His tag (human, UniProt P31994 43-217); assay: SPR; KD for FcγRIIaH divided by KD for FcγRIIb
T8 construct: extracellular domain
T8 sequence (looked up): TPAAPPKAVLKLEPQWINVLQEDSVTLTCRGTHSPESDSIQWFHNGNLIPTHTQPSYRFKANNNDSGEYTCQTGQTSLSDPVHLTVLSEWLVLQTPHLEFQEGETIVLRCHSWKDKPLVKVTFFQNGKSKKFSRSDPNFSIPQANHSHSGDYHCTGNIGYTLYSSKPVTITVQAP

[8] = molecular target: T8, FcγRIIb extracellular domain with …; assay: SPR; KD for FcγRIIaR divided by KD for FcγRIIb
[9] = molecular target: T9, FcγRIIa type H (allotype H131) extracellular domain with C-terminal His tag (human, UniProt P12318 34-217); assay: SPR (Biacore), antibody captured, FcγR as analyte
T9 construct: extracellular domain; also called FcγRIIaH; FcγRIIa H type
T9 sequence (looked up): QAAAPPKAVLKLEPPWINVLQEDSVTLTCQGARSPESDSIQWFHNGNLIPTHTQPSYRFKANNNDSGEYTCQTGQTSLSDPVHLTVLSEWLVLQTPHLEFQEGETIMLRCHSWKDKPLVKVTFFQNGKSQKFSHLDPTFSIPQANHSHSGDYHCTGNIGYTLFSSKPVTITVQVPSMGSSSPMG

[10] = molecular target: T8, FcγRIIb extracellular domain with …; assay: SPR (Biacore), antibody captured, FcγR as analyte
[11] = molecular target: T10, FcγRIIa type R (allotype R131) extracellular domain with C-terminal His tag (human, UniProt P12318 34-217); assay: SPR; KD of IL6R-B3/IL6R-L divided by KD of the variant
T10 construct: extracellular domain; also called FcγRIIaR; FcγRIIa R type
T10 sequence (looked up): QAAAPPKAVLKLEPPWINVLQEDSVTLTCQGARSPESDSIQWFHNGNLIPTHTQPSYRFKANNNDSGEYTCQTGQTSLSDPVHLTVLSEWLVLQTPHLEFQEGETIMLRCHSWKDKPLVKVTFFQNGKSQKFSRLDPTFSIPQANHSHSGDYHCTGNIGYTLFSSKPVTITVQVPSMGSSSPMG

[12] = molecular target: T8, FcγRIIb extracellular domain with …; assay: as above

relative binding activity (human FcγRIIb): 100 IL6R-F652/IL6R-L = 100
relative binding activity [1]: 100 IL6R-F652/IL6R-L = 100
B1: IL6R-F652/IL6R-L (antibody, human IgG1, kappa)
heavy: QVQLQESGPGLVKPSETLSLTCAVSGHSISHDHAWSWVRQPPGEGLEWIGFISYSGITNYNPSLQGRVTISRDNSKNTLYLQMNSLRAEDTAVYYCARSLARTTAMDYWGEGTLVTVSSASTKGPSVFPLAPSSKSTSGGTAALGCLVKDYFPEPVTVSWNSGALTSGVHTFPAVLQSSGLYSLSSVVTVPSSSLGTQTYICNVNHKPSNTKVDKKVEPKSCDKTHTCPPCPAPELLGGDSVFLFPPKPKDTLYISRTPEVTCVVVDVSHEDPEVKFNWYVDGVEVHNAKTKPREEQYNSTYRVVSVLTVLHQDWLNGKEYKCKVSNKALPAPIEKTISKAKGQPREPQVYTLPPSRDELTKNQVSLTCLVKGFYPSDIAVEWESNGQPENNYKTTPPVLDSDGSFFLYSKLTVDKSRWQQGNVFSCSVMHEALHYHYTQKSLSLSP
light: not shown
notes: copies: 2 + 2

relative binding activity [2]: 104 % of IL6R-BF648/IL6R-L binding
relative binding activity [3]: 449 % of IL6R-BF648/IL6R-L binding
relative binding activity [4]: 188 % of IL6R-BF648/IL6R-L binding
relative binding activity [5]: 164 % of IL6R-BF648/IL6R-L binding
relative binding activity [6]: 157 % of IL6R-BF648/IL6R-L binding
B2: IL6R-BP198/IL6R-L (antibody, human IgG1, kappa, name in EU numbering)
heavy: QVQLQESGPGLVKPSETLSLTCAVSGHSISHDHAWSWVRQPPGEGLEWIGFISYSGITNYNPSLQGRVTISRDNSKNTLYLQMNSLRAEDTAVYYCARSLARTTAMDYWGEGTLVTVSSASTKGPSVFPLAPSSKSTSGGTAALGCLVKDYFPEPVTVSWNSGALTSGVHTFPAVLQSSGLYSLSSVVTVPSSSLGTQTYICNVNHKPSNTKVDKKVEPKSCDKTHTCPPCPAPDYLGGDSVFLFPPKPKDTLMISRTPEVTCVVVDVSDEDGEVKFNWYVDGVEVHNAKTKPREEQYNSTYRVVSVLTVLHQDWLNGKEYKCKVSNAALPKPIEKTISKAKGQPREPQVYTLPPSRDELTKNQVSLTCLVKGFYPSDIAVEWESNGQPENNYKTTPPVLDSDGSFFLYSKLTVDKSRWQQGNVFSCSVMHEALHNHYTQESLSLSP
light: not shown
notes: Alterations introduced into IL6R-B3, EU numbering; copies: 2 + 2

KD(IIaH)/KD(IIb) [7]: 821
KD(IIaR)/KD(IIb) [8]: 38.6
Kd [9]: 54 µM
Kd [10]: 0.0065 µM
KD(IIaR) OF PARENT POLYPEPTIDE/KD(IIaR) OF ALTERED POLYPEPTIDE [11]: 4.3
KD(IIb) OF PARENT POLYPEPTIDE/KD(IIb) OF ALTERED POLYPEPTIDE [12]: 471
B3: IL6R-BP494/IL6R-L (antibody, human IgG1, kappa, name in EU numbering)
heavy: QVQLQESGPGLVKPSETLSLTCAVSGHSISHDHAWSWVRQPPGEGLEWIGFISYSGITNYNPSLQGRVTISRDNSKNTLYLQMNSLRAEDTAVYYCARSLARTTAMDYWGEGTLVTVSSASTKGPSVFPLAPSSKSTSGGTAALGCLVKDYFPEPVTVSWNSGALTSGVHTFPAVLQSSGLYSLSSVVTVPSSSLGTQTYICNVNHKPSNTKVDKKVEPKSCDKTHTCPPCPAPELLGDDSVFLFPPKPKDTLMISRTPEVTCVVVDVAEEDGEVKFNWYVDGVEVHNAKTKPREEQDNSTYRVVSVLTVLHQDWLNGKEYKCKVSNKALPRPIEKTISKAKGQPREPQVYTLPPSRDELTKNQVSLTCLVKGFYPSDIAVEWESNGQPENNYKTTPPVLDSDGSFFLYSKLTVDKSRWQQGNVFSCSVMHEALHNHYTQESLSLSP
light: not shown
notes: copies: 2 + 2
